Assay results from IntAct's records for PubMed 20125124.

B1: Serine protease HTRA2, mitochondrial (Homo sapiens), O43464 (parent)
chain: MAAPRAGRGAGWSLRAWRALGGIRWGRRPRLTPDLRALLTSGTSDPRARVTYGTPSLWARLSVGVTEPRACLTSGTPGPRAQLTAVTPDTRTREASENSGTRSRAWLAVALGAGGAVLLLLWGGGRGPPAVLAAVPSPPPASPRSQYNFIADVVEKTAPAVVYIEILDRHPFLGREVPISNGSGFVVAADGLIVTNAHVVADRRRVRVRLLSGDTYEAVVTAVDPVADIATLRIQTKEPLPTLPLGRSADVRQGEFVVAMGSPFALQNTITSGIVSSAQRPARDLGLPQTNVEYIQTDAAIDFGNSGGPLVNLDGEVIGVNTMKVTAGISFAIPSDRLREFLHRGEKKNSSSGISGSQRRYIGVMMLTLSPSILAELQLREPSFPDVQHGVLIHKVILGSPAHRAGLRPGDVILAIGEQMVQNAEDVYEAVRTQSQLAVQIRRGRETLTLYVTPEVTE
partner: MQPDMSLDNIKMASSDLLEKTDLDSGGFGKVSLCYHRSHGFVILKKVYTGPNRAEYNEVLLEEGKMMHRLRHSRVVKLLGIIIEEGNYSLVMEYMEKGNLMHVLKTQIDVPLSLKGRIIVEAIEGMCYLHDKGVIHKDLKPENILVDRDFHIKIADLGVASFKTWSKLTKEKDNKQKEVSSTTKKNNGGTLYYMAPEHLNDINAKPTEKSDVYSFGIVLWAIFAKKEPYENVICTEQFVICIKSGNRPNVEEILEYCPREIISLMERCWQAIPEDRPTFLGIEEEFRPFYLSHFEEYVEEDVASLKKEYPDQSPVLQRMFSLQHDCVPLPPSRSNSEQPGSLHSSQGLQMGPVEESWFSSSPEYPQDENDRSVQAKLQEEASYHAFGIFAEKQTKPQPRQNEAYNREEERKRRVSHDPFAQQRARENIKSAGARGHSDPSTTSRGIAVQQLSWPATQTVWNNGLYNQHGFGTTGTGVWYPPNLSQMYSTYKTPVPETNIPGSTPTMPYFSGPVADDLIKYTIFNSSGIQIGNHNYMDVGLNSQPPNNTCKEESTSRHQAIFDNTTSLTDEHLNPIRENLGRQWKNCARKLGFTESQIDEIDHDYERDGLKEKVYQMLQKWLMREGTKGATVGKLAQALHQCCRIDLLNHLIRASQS

Variants of: B1
Conditions: with ripk1_mouse Ripk1, Q60855

Row | effect of a mutation on the interaction | Variant
1 | disrupting interaction | MAAPRAGRGAGWSLRAWRALGGIRWGRRPRLTPDLRALLTSGTSDPRARVTYGTPSLWARLSVGVTEPRACLTSGTPGPRAQLTAVTPDTRTREASENSGTRSRAWLAVALGAGGAVLLLLWGGGRGPPAVLAAVPSPPPASPRSQYNFIADVVEKTAPAVVYIEILDRHPFLGREVPISNGSGFVVAADGLIVTNAHVVADRRRVRVRLLSGDTYEAVVTAVDPVADIATLRIQTKEPLPTLPLGRSADVRQGEFVVAMGSPFALQNTITSGIVSSAQRPARDLGLPQTNVEYIQTDAAIDFGNAGGPLVNLDGEVIGVNTMKVTAGISFAIPSDRLREFLHRGEKKNSSSGISGSQRRYIGVMMLTLSPSILAELQLREPSFPDVQHGVLIHKVILGSPAHRAGLRPGDVILAIGEQMVQNAEDVYEAVRTQSQLAVQIRRGRETLTLYVTPEVTE [S306A]
